Source: patent publication US20050265970A1 (UNIVERSITY OF CHICAGO, published 2005)
Ends that are not written are not given here.

B2: GST-MKK7 (GST-JNKK2; human JNKK2 in pGEX-2T) (enzyme)
chain: MAASSLEQKLSRLEAKLKQENREARRRIDLNLDISPQRPRPTLQLPLANDGGSRSPSSESSPQHPTPPARPRHMLGLPSTLFTPRSMESIEIDHKLQEIMKQTGYLTIGGQRYQAEINDLENLGEMGSGTCGPVWKMRFRKTGHVIAVKQMRRSGNKEENKRILMDLDVVLKSHDCPYIVQCFGTFITNTDVFIAMELMGTCAEKLKKRMQGPIPERILGKMTVAIVKALYYLKEKHGVIHRDVKPSNILLDERGQIKLCDFGISGRLVDSKAKTRSAGCAAYMAPERIDPPDPTKPDYDIRADVWSLGISLVELATGQFPYKNCKTDFEVLTKVLQEEPPLLPGHMGFSGDFQSFVKDCLTKDHRKRPKYNKLLEHSFIKRYETLEVDVASWFKDVMAKT
notes: On glutathione beads in pull-downs; also called recombinant JNKK2; not shown: glutathione S-transferase encoded by the pGEX-2T vector

Assays:
[1] = target: T1, GST (glutathione-S-transferase, control) (UniProt P08515 1-218 = GST); test: GST pull-down of 35S-labeled in vitro translated protein
T1 construct: Control beads in GST pull-downs

[2] = target: T2, Gadd45β (1-68) (EcoRV digestion), in vitro translated as GFP fusion (murine, UniProt P22339 1-68, 35S-methionine label); test: GST pull-down with GST-JNKK2 beads and 35S-labeled in vitro translated Gadd45β truncations
T2 construct: range 1-68; not shown: GFP of pEGFP-N1 (Clontech) with a short oligonucleotide-encoded linker
T2 sequence (looked up): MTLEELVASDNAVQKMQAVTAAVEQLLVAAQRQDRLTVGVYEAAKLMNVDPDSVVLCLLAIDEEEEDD

[3] = target: B2; test: as above
[4] = target: T3, endogenous MEKK1 of 3DO cells (UniProt P53349 2-1493, limits assumed); test: co-immunoprecipitation of endogenous proteins from 3DO cells
T3 sequence (looked up): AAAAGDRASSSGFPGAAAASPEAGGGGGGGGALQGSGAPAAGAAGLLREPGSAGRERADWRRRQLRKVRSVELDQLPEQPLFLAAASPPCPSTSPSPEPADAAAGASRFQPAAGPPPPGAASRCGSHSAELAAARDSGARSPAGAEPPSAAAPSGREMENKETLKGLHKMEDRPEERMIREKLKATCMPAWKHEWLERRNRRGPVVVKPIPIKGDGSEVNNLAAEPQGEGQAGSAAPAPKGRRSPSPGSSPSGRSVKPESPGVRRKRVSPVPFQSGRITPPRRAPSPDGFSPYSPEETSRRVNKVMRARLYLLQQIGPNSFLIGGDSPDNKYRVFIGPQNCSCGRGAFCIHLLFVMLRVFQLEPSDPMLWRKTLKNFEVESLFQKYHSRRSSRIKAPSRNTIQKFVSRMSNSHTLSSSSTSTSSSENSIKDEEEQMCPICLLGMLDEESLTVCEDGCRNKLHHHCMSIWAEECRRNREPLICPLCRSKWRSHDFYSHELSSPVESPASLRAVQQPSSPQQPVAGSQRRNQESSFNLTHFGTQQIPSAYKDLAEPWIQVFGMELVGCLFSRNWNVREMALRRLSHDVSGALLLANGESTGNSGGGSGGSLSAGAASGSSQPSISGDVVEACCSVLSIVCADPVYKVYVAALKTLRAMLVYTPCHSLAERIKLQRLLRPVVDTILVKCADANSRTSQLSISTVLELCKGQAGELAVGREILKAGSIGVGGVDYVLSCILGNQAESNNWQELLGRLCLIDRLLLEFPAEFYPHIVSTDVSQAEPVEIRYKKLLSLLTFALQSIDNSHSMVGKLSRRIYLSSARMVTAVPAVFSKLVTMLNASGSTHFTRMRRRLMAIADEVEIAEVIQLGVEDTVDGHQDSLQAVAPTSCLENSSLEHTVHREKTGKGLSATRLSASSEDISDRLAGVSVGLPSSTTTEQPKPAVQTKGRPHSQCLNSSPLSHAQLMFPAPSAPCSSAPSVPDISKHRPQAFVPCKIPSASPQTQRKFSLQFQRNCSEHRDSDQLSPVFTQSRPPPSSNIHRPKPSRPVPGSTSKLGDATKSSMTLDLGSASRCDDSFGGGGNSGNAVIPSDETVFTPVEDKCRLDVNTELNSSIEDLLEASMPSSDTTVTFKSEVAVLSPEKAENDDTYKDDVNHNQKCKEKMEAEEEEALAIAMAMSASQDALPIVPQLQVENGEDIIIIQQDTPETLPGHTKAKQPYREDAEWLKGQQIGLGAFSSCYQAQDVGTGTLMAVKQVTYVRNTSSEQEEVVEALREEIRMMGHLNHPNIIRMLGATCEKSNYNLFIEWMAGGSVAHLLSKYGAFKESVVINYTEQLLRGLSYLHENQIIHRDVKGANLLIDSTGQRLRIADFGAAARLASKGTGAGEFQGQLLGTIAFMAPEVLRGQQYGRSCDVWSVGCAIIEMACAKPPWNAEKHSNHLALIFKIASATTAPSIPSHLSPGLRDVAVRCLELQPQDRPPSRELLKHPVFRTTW

[5] = target: T4, GST-Gadd45β (full-length murine Gadd45β directly fused to GST) (murine, UniProt P22339 1-160); test: GST pull-down of 35S-labeled in vitro translated MKK7 peptides
T4 construct: range 1-160; Made in E. coli BL21, on glutathione-sepharose beads in pull-downs; purified protein in kinase assays; not shown: glutathione S-transferase encoded by the pGEX-3X vector
T4 sequence (looked up): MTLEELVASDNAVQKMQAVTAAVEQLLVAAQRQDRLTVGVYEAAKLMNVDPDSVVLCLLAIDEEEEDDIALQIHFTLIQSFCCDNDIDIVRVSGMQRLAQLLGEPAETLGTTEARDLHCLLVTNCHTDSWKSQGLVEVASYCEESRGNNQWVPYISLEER

T1 sequence (P08515 whole entry): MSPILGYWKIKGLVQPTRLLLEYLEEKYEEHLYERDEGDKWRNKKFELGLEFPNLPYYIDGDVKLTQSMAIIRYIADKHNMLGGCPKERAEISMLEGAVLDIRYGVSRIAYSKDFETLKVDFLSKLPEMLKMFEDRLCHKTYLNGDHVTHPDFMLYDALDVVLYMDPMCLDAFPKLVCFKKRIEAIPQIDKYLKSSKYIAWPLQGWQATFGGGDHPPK

B1: FL-JNKK2, JNKK2 (1-401; FL), 35S-labeled in vitro translated full-length human JNKK2/MKK7 (enzyme)
chain: MAASSLEQKLSRLEAKLKQENREARRRIDLNLDISPQRPRPTLQLPLANDGGSRSPSSESSPQHPTPPARPRHMLGLPSTLFTPRSMESIEIDHKLQEIMKQTGYLTIGGQRYQAEINDLENLGEMGSGTCGPVWKMRFRKTGHVIAVKQMRRSGNKEENKRILMDLDVVLKSHDCPYIVQCFGTFITNTDVFIAMELMGTCAEKLKKRMQGPIPERILGKMTVAIVKALYYLKEKHGVIHRDVKPSNILLDERGQIKLCDFGISGRLVDSKAKTRSAGCAAYMAPERIDPPDPTKPDYDIRADVWSLGISLVELATGQFPYKNCKTDFEVLTKVLQEEPPLLPGHMGFSGDFQSFVKDCLTKDHRKRPKYNKLLEHSFIKRYETLEVDVASWFKDVMAKT
modifications: 35S-methionine label
notes: Reticulocyte lysate translation from pBS-JNKK2; also called full-length MKK7; SacII (FL)
**Q.** Does B1 bind [1]?
**A.** Result: no binding

**Q.** Does B2 bind [2]?
**A.** Result: no binding

B3: Gadd45β (114-160), in vitro translated as GFP fusion (other, murine, UniProt P22339 114-160, looked up)
chain: ARDLHCLLVTNCHTDSWKSQGLVEVASYCEESRGNNQWVPYISLEER
modifications: cysteine pairing not given here; also: GFP fusion, letters not given here, 35S-methionine label
notes: The two places differ by one residue at the N-terminal limit; also called Gadd45β(113-160) in the methods; not shown: GFP of pEGFP-N1 (Clontech) with a short oligonucleotide-encoded linker
**Q.** Does B3 bind [3]?
**A.** Result: no binding

B4: Gadd45β in cells (untagged full-length: endogenous in 3DO cells and MEFs, or stably expressed in 3DO-IκBαM-Gadd45β clones) (other, UniProt P22339 1-160, looked up)
chain: MTLEELVASDNAVQKMQAVTAAVEQLLVAAQRQDRLTVGVYEAAKLMNVDPDSVVLCLLAIDEEEEDDIALQIHFTLIQSFCCDNDIDIVRVSGMQRLAQLLGEPAETLGTTEARDLHCLLVTNCHTDSWKSQGLVEVASYCEESRGNNQWVPYISLEER
notes: also called endogenous Gadd45β
**Q.** Does B4 bind [4]?
**A.** Result: no binding

B5: MKK7 peptide 2 (aa 142-166 of MKK7/JNKK2), in vitro translated, fused to eGFP (peptide)
chain: TGHVIAVKQMRRSGNKEENKRILMD
modifications: also: 35S-methionine label, place not given here, eGFP fusion, side not given here
notes: not shown: enhanced green fluorescent protein (eGFP, Clontech) fusion partner
**Q.** Does B5 bind [5]?
**A.** Result: no binding
